Measured values taken from patent US20240116985A1 (published 2024).
Starred links: 1 amine or outer side, 2 acyl side, 3 side chain; linkers in the order of their positions; H or OH if unused. Positions of bridges follow the written chain, without caps; N, C: chain ends. Non-standard residues stand in square brackets, D forms with d. Primed or numbered codes have the meaning given here. *: point of attachment. PyrS2″ = (S)-3-amino-1-((pent-4-en-1-yloxy)carbonyl)pyrrolidine-3-carboxylic acid (stapling residue), C=CCCCOC(=O)N1CC[C@@](N[*:1])(C(=O)[*:2])C1; B5(4) = 2,2-bis(4-pentenyl)glycine = 2-amino-2-(pent-4-en-1-yl)hept-6-enoic acid (stitching residue), C=CCCCC(CCCC=C)(N[*:1])C(=O)[*:2]; B5(5) = 2,2-bis(4-pentenyl)glycine, 2-amino-2-(pent-4-en-1-yl)hept-6-enoic acid (stitching residue), C=CCCCC(CCCC=C)(N[*:1])C(=O)[*:2]; TfeGA = (S)-2-amino-3-((carboxymethyl)(2,2,2-trifluoroethyl)amino)propanoic acid, O=C([C@H](CN(CC(=O)[*:3])CC(F)(F)F)N[*:1])[*:2]; PyrS2 = (S)-3-amino-1-((pent-4-en-1-yloxy)carbonyl)pyrrolidine-3-carboxylic acid, C=CCCCOC(=O)N1CC[C@@](N[*:1])(C(=O)[*:2])C1; PyrS1 = (S)-3-amino-1-((but-3-en-1-yloxy)carbonyl)pyrrolidine-3-carboxylic acid, C=CCCOC(=O)N1CC[C@@](N[*:1])(C(=O)[*:2])C1; B5(9) = 2-amino-2-(pent-4-en-1-yl)hept-6-enoic acid (2,2-bis(4-pentenyl)glycine), C=CCCCC(CCCC=C)(N[*:1])C(=O)[*:2]; PyrS = (S)-1-((allyloxy)carbonyl)-3-aminopyrrolidine-3-carboxylic acid, C=CCOC(=O)N1CC[C@@](N[*:1])(C(=O)[*:2])C1; B5(19) = 2-amino-2-(pent-4-en-1-yl)hept-6-enoic acid (bis(4-pentenyl)glycine), C=CCCCC(CCCC=C)(N[*:1])C(=O)[*:2]; MorphAsn = (S)-2-amino-4-morpholino-4-oxobutanoic acid, O=C(C[C@H](N[*:1])C(=O)[*:2])N1CCOCC1; B6 = 2-amino-2-(hex-5-en-1-yl)oct-7-enoic acid, C=CCCCCC(CCCCC=C)(N[*:1])C(=O)[*:2]; Me2Asn = listed as N4-methyl-L-asparagine, CNC(=O)C[C@H](N[*:1])C(=O)[*:2]; Phe(3-COOH) = N[C@@H](Cc1cccc(C(=O)O)c1)C(=O)O; Phe(2-CF3) = N[C@@H](Cc1ccccc1C(F)(F)F)C(=O)O; d(βAsp) = O=C(O)[C@@H](CC(=O)[*:2])N[*:1]; βAsp = O=C(O)[C@H](CC(=O)[*:2])N[*:1]; Bta = N[C@@H](Cc1csc2ccccc12)C(=O)O; αAllylPro = C=CC[C@@]1(C(=O)O)CCCN1; Morpholinoacetyl = O=C(CN1CCOCC1)*; tBuAla = CC(C)(C)C[C@H](N)C(=O)O; 3Thi = N[C@@H](Cc1ccsc1)C(=O)O; Cha = N[C@@H](CC1CCCCC1)C(=O)O; S8 = C=CCCCCCC[C@](C)(N)C(=O)O; BnBoroleK = not defined here; PyrS2(4) = not defined here; TfeGA″ = not defined here; 34ClF = not defined here; Nle = CCCC[C@H](N)C(=O)O; Aib = CC(C)(N)C(=O)O

T1: B-cat-Halo (beta-catenin HaloTag construct expressed in HEK293 cells) (UniProt P35222 1-781)
T1 sequence (looked up): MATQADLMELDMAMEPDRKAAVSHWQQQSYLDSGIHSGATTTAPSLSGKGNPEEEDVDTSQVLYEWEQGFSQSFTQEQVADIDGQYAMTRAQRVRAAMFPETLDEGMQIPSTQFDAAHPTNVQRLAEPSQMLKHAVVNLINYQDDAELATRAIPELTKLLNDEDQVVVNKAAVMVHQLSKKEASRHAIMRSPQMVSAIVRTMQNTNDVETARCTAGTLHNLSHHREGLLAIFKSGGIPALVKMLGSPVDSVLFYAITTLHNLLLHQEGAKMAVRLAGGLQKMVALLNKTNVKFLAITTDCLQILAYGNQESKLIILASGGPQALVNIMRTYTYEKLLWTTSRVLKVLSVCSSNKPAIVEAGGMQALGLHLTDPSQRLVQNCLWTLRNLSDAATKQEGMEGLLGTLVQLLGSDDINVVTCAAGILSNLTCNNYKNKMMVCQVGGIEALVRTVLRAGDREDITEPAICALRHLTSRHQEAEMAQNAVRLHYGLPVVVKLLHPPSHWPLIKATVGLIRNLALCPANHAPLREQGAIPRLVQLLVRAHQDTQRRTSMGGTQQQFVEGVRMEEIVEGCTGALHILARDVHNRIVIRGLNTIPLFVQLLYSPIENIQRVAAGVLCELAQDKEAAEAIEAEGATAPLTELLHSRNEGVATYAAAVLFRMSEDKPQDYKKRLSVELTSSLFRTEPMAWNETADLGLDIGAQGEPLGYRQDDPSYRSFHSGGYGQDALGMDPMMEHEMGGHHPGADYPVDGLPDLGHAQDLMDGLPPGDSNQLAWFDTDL

T2: B-cat-Halo (beta-catenin HaloTag construct expressed in HEK293 cells) (UniProt P35222 1-781)
T2 sequence (looked up): T1 sequence (looked up)

T3: full-length beta-Catenin (Uniprot ID P35222) (Homo sapiens (Human), UniProt P35222 1-781)
T3 construct: also called bCat; B-Catenin
T3 sequence: T1 sequence (looked up)

B1: I-2510 (peptide)
peptide: Ac-[αAllylPro]D[tBuAla][B6]D[Phe(3-COOH)]QAFL[PyrS1][Phe(2-CF3)][Bta]A-NH2
modifications: staple 1-4, 4-11
B2: I-2513 (peptide)
peptide: Ac-[αAllylPro]D[tBuAla][B6]D[Phe(3-COOH)]AAFL[PyrS2][Phe(2-CF3)][Bta]Q-NH2
modifications: staple 1-4, 4-11
B3: I-2515 (peptide)
peptide: Ac-[αAllylPro]D[tBuAla][B6]D[Phe(3-COOH)]QAFL[PyrS2][Phe(2-CF3)][Bta]A-NH2
modifications: staple 1-4, 4-11
B4: I-2517 (peptide)
peptide: Ac-[αAllylPro]D[tBuAla][B6]D[Phe(3-COOH)]QAFL[PyrS2][Phe(2-CF3)][Bta]A-NH2
modifications: staple 1-4, 4-11
B5: I-2518 (peptide)
peptide: Ac-[αAllylPro]D[tBuAla][B6]D[Phe(3-COOH)]AAFL[PyrS][Phe(2-CF3)][Bta]Q-NH2
modifications: staple 1-4, 4-11
B6: I-2522 (peptide)
peptide: Ac-[αAllylPro]N[Cha][B5(4)]DQK(Ac)AFL[PyrS2]F[Bta][MorphAsn]-NH2
modifications: staple 1-4, 4-11
B7: I-2523 (peptide)
peptide: Ac-[αAllylPro]N[Cha][B5(4)]DQKAFL[PyrS2]F[Bta][MorphAsn]-NH2
modifications: staple 1-4, 4-11; not fully specified (residue 7); printed as Ac-PL3-Asn-Cha-B5-Asp-Gln-[Phc]Lys-Ala-Phe-Leu-PyrS2-Phe-BztA-MorphAsn-NH2
B8: I-2526 (peptide)
peptide: Ac-[αAllylPro]N[Cha][B5(4)]DQK(mPEG4)AFL[PyrS2]F[Bta][MorphAsn]-NH2
modifications: staple 1-4, 4-11
B9: I-2527 (peptide)
peptide: Ac-[αAllylPro]N[Cha][B5(4)]DQK(Morpholinoacetyl)AFL[PyrS2]F[Bta][MorphAsn]-NH2
modifications: staple 1-4, 4-11
B10: I-2182 (peptide)
peptide: Ac-[αAllylPro]D[tBuAla][B5(4)]DDAAFN[PyrS2″][3Thi][34ClF]Q-NH2
modifications: staple 1-4, 4-11; reading uncertain; also: printed as Ac-PL3-Asp-Npg-B5-Asp-Asp-Ala-Ala-Phe-Asn-PyrS2-3Thi-34C1F-Gln-NH2
B11: I-2183 (peptide)
peptide: Ac-[αAllylPro]D[tBuAla][B5(4)]DDAAFL[PyrS2″][3Thi][34ClF]Q-NH2
modifications: staple 1-4, 4-11; reading uncertain; also: printed as Ac-PL3-Asp-Npg-B5-Asp-Asp-Ala-Ala-Phe-Leu-PyrS2-3Thi-34C1F-Gln-NH2
B12: I-2185 (peptide)
peptide: Ac-[αAllylPro]D[tBuAla][B5(4)]D[TfeGA]AAFL[PyrS2″][3Thi][Bta]Q-NH2
modifications: staple 1-4, 4-11; not fully specified (residue 9); also: later-eluting HPLC isomer peak
B13: I-2187 (peptide)
peptide: Ac-[αAllylPro]D[tBuAla][B5(4)]D[TfeGA″]AAFL[PyrS2(4)][3Thi][Bta][BnBoroleK]-NH2
modifications: staple 1-4, 4-11; reading uncertain; also: later-eluting HPLC isomer peak
B14: I-2188 (peptide)
peptide: Ac-[αAllylPro]D[tBuAla][B5(4)]D[Phe(3-COOH)][Me2Asn]AFL[PyrS2(4)][3Thi][Bta]A-NH2
modifications: staple 1-4, 4-11; reading uncertain; also: printed as Ac-PL3-Asp-Npg-B5-Asp-3COOHF-Me2Asn-Ala-Phe-Leu-PyrS2-3Thi-BztA-Ala-NH2
B15: I-2189 (peptide)
peptide: Ac-[αAllylPro]D[tBuAla][B5(4)]D[Phe(3-COOH)][Nle]AFL[PyrS2″][3Thi][Bta]V-NH2
modifications: staple 1-4, 4-11
B16: I-2190 (peptide)
peptide: Ac-[αAllylPro]D[tBuAla][B5(4)]D[Phe(3-COOH)]SAFL[PyrS2(4)][3Thi][Bta]V-NH2
modifications: staple 1-4, 4-11; reading uncertain; also: printed as Ac-PL3-Asp-Npg-B5-Asp-3COOHF-Ser-Ala-Phe-Leu-PyrS2-3Thi-BztA-Val-NH2
B17: I-2191 (peptide)
peptide: Ac-[αAllylPro]D[tBuAla][B5(4)]D[Phe(3-COOH)][Me2Asn]AFL[PyrS2″][3Thi][Bta]V-NH2
modifications: staple 1-4, 4-11
B18: I-2192 (peptide)
peptide: Ac-[αAllylPro]D[tBuAla][B5(4)]D[Phe(3-COOH)]QAFL[PyrS2″][3Thi][Bta][tBuAla]-NH2
modifications: staple 1-4, 4-11
B19: I-2193 (peptide)
peptide: Ac-[αAllylPro]D[tBuAla][B5(4)]D[Phe(3-COOH)][Nle]AFL[PyrS2″][3Thi][Bta][tBuAla]-NH2
modifications: staple 1-4, 4-11
B20: I-2194 (peptide)
peptide: Ac-[αAllylPro]D[tBuAla][B5(4)]D[Phe(3-COOH)][Aib]AFL[PyrS2″][3Thi][Bta][tBuAla]-NH2
modifications: staple 1-4, 4-11
B21: I-2195 (peptide)
peptide: Ac-[αAllylPro]D[tBuAla][B5(4)]D[Phe(3-COOH)]SAFL[PyrS2″][3Thi][Bta][tBuAla]-NH2
modifications: staple 1-4, 4-11
B22: I-2196 (peptide)
peptide: Ac-[αAllylPro]D[tBuAla][B5(4)]D[Phe(3-COOH)][Me2Asn]AFL[PyrS2″][3Thi][Bta][tBuAla]-NH2
modifications: staple 1-4, 4-11
B23: I-659 (peptide)
peptide: XDIXDEALFQXFXQ
modifications: not fully specified; Ac-PL3-Asp-Ile-B5-Asp-Glu-Ala-Leu-Phe-Gln-S8-Phe-BztA-Gln-NH2; N-terminal acetyl, C-terminal amide; PL3(1), B5(4), S8(11) stapled by olefin metathesis (1-4 and 4-11); BztA at 13
notes: Stapled peptide
B24: I-660 (peptide)
peptide: Ac-[αAllylPro]DI[B5(19)]DEAFFQ[S8]F[Bta]Q-NH2
modifications: staple 1-4, 4-11
notes: Stapled peptide
B25: I-661 (peptide)
peptide: XDIXDEASFQXFXQ
modifications: not fully specified; Ac-PL3-Asp-Ile-B5-Asp-Glu-Ala-Ser-Phe-Gln-S8-Phe-BztA-Gln-NH2; N-terminal acetyl, C-terminal amide; PL3(1), B5(4), S8(11) stapled by olefin metathesis (1-4 and 4-11); BztA at 13
notes: Stapled peptide
B26: I-663 (peptide)
peptide: Ac-[αAllylPro]DI[B5(19)]DEAQFQ[S8]F[Bta]Q-NH2
modifications: staple 1-4, 4-11
notes: Stapled peptide
B27: I-664 (peptide)
peptide: Ac-[αAllylPro]DI[B5(9)]DEAWFQ[S8]F[Bta]Q-NH2
modifications: staple 1-4, 4-11
notes: Stapled peptide
B28: I-665 (peptide)
peptide: Ac-[αAllylPro]DI[B5(9)]DEAWFQ[S8]F[Bta]Q-NH2
modifications: staple 1-4, 4-11
notes: Stapled peptide
B29: I-669 (peptide)
peptide: Ac-[αAllylPro][d(βAsp)]I[B5(9)]DEAAFQ[S8]F[Bta]Q-NH2
modifications: staple 1-4, 4-11
notes: Stapled peptide
B30: I-673 (peptide)
peptide: Ac-[αAllylPro]DI[B5(9)][βAsp]EAAFQ[S8]F[Bta]Q-NH2
modifications: staple 1-4, 4-11
notes: Stapled peptide
B31: I-674 (peptide)
peptide: Ac-[αAllylPro]DI[B5(5)][d(βAsp)]EAAFQ[S8]F[Bta]Q-NH2
modifications: staple 1-4, 4-11
notes: Stapled peptide

biological target: T1, B-cat-Halo (beta-catenin HaloTag …); test: cell-based or functional assay

| Binder | NanoBRET Abs IC50 (uM); Bcat-Halo / TCF4-Luc in HEK293 cells [µM] |
| --- | --- |
| B1 | 7.8 |
| B2 | > 20 |
| B3 | > 20 |
| B4 | 30 |
| B5 | > 20 |
| B6 | > 20 |
| B7 | > 20 |
| B8 | > 20 |
| B9 | > 20 |

biological target: T2, B-cat-Halo (beta-catenin HaloTag …); test: cell-based or functional assay

| Binder | NanoBRET Abs IC50 [µM] |
| --- | --- |
| B10 | 11.1 |
| B11 | 5 |
| B12 | 6.1 |
| B13 | 10.8 |
| B14 | 7.6 |
| B15 | 33.4 |
| B16 | 33.4 |
| B17 | 29.5 |
| B18 | 16.1 |
| B19 | 39.9 |
| B20 | 8.8 |
| B21 | 21 |
| B22 | 39.3 |

biological target: T3, full-length beta-Catenin (Uniprot ID …); test: fluorescence polarization competition; full-length beta-catenin, competitor 5FAM-TCF4(10-53) probe
Outline: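 Incubate 60 minutes at 20° C. away from light, then read polarization in duplicate. Fit to 1:1 binding with hill slope.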

| Binder | IC50 [µM] |
| --- | --- |
| B23 | 0.43 |
| B24 | 0.544 |
| B25 | 0.045 |
| B26 | 0.043 |
| B27 | 0.996 |
| B28 | 0.923 |
| B29 | 0.451 |
| B30 | 5 |
| B31 | 5 |
